To fix the notation:
B1: humanized B1-176 with heavy chain Hu-176 VH-1 and light chain Hu-176 VL (antibody, V domains shown)
VH: EVQLVESGGGLVQPGGSLRLSCAASGFSFSSSYCMCWVRQAPGKGLEWVSCIYTDSSGATYYASWAKGRFTISRHNSKNTLYLQMNSLRAEDTAVYYCARGWDYEDPGYTDTTYFSLWGRGTLVTVSS
VL: DIQLTQSPSFLSASVGDRVTITCQASQTIYTNLAWYQQKPGKAPKLLIYAASTLASGVPSRFSGSGSGTEFTLTISSLQPEDFATYYCQSYYGSSTTGNGFGGGTKVEIK
B2: Hu B1-176-LALAPG (antibody, V domains shown)
VH: B1 VH with W48L
VL: B1 VL
notes: Human IgG1 with L234A, L235A and P329G
B3: B1-#190 (antibody, V domains shown)
VH: QEQLKESGGDLVKPEGSLTLTCTASGFSFSSDYWVCWVRQAPGKGPEWIGCIYTGDDDTYYASWAKGRFTISKTSSTTVTLEVTSLTAADTATYFCARGLTIGTAELYFWGPGTVVTVSS
VL: ELVLTQTPSPVSAAVGGTVTINCQASQSISNELSWYQQKPGQPPKLLIYLASTLDSGVPSRFKGSGSGTQFTLTISDLECADAATYYCQSHYYGGSSDYGWAFGGGTEVVVK
notes: recombinant rabbit IgG
B4: B1-#204 (antibody, V domains shown)
VH: QSVKESGGGLVKPGGTLTLTCTASGFSFSSSYCMCWVRQAPGKGLELIACIYTDSSGATYYASWAKGRFTISKSSSTTITLQMTSLTAADTATYFCARGWDYEDPGYTDTTYFSLWGPGTLVTVSS
VL: ELDMTQTPSSVEAAVGGTVTIKCQASQTIYTNLAWYQQKPGQPPNLLIYAASTLASGVSSRFKGSGSGTEFTLTISDLECADAATYYCQSYYGSSTTGNGFGGGTEVEIN
notes: recombinant rabbit IgG
B5: B1-#5 (antibody, V domains shown)
VH: EQSLEESGGDLVKPEGSLTLTCTASELSFSSAYYMCWVRQAPGKGLEWIGCIYSGDGDTYYANWAKGRFTISKTSSTTVTLQMTSLTDADTATYFCARALDSHYSSFDLWGPGTLVTISS
VL: ELDMTQTPSSVSAAVGDTVTIKCQASQSIYRYLAWYQQKPGQRPSLLIYYGSDLASGVPSRFSGSGSGTEFTLTISDLECADAASYYCQTTYDDYHNGWAFGGGTNVEIN
notes: recombinant rabbit IgG
B6: B1-#3 (antibody, V domains shown)
VH: QSLEESEGDLVKPEGSLTLTCKASGFDFSSDAMCWVRQAPGKGLEWIGCIYNGDEITDHASWAKGRFTISKTSPTTVTLQMTSLTVADTATYFCARAVYSDGGAGYPYMYGMDLWGPGTLVTVSS
VL: ELDMTQTPASVEAAVGGTVTIKCQASQNIYSYLVWYQQKPGQPPKLLISKASTLASGVSSRFKGSGSGTEFTLTINDLECADAATYYCQTNYFSSTSHFGVFTFGGGTELEIK
notes: IgG; also called antagonistic B1-3
B7: B1-#74 (antibody, V domains shown)
VH: QSLEESGGGLVKPGASLTLTCTASGFSLNRYYMCWVRQAPGKGLEWIGCIYSGSGSTYYASWAKGRFTISKTSSTTVTLQMTSLPAADTATYFCGRLDYRVIYAFNLWGPGTLVTISS
VL: ELVLTQTPASVSAAVGGTVTINCQASQSIGSGNLAWYQQKPGQPPKLLIYLASTLASGVPPRFKGSGSGTEFTLTISDLECDDAATYYCQYTYYGTTYDNAFGGGTELEIK
notes: recombinant rabbit IgG
B8: B1-#198 (antibody, V domains shown)
VH: QSLEESGGGLVKPEGSLTLTCTASGFDLSNNYYICWVRQAPGKGLELIACVDSDLTDSADYASWAKGRFTISKTSSTTVTLQMTSLTAADTATYFCAGSGSGYYYYYGMDLWGPGTLVTISS
VL: ELDMTQTPASVSEPVGGTVTIKCQASQSIGSYLAWYQQKPGQPPKLLAFYASTLKSGVPPRFKGSGSGTEFTLTISDLECADAATYYCQSNRLSSSDVNAFGGGTEVEIK
notes: recombinant rabbit IgG
B9: B1-#93 (antibody, V domains shown)
VH: EQSVEESGGDLVKPGTSLTLTCTASGFSFSGNTICWVRQAPGKRPEWIACIYPSSTSITTYATWAKGRFTVSKTSSTTVTLQMTSLTAADTATYFCARRYAAFLTYGSGAFDPWGPGTLVTISS
VL: ELDLTQTPASVSAAVGGTVTINCQASESIGSALAWYQQKPGQPPKLLIYSASALASGVPSRFKGSGSGTEYTLTISDLECADAATYYCQSYYGSGTTALDTFGGGTEVEIK
notes: recombinant rabbit IgG
B10: B1-#72-1 (antibody, V domains shown)
VH: QSVKESGGGLVQPEGSLALTCKASGIDLSNYWYMCWVRQAPGKGLEWIGCVATDSSRTHYATWAKGRFTVSKTSSTTVTLQMTSLTAADTATYFCARGSGASTNGVWWVMGDGMDLWGPGTLVTISS
VL: ELVMTQTPSSVSAAVGGTVTIKCQASPSISTYLSWYQQKPGQPPKRLINRASTLASGVPPRFKGSGAGTQFTLTISDLECADAATYYCQNNYHSGSSNGGGVAFGGGTEVEIK
notes: recombinant rabbit IgG
B11: B1-#22 (antibody, V domains shown)
VH: EQSLEESGGGLVKPGASLTLTCKASGFDFSSNDYMCWVRQAPGKGLEWIGCIYGGDGHTYYATWAKGRFTISKASSTTVTLQMTSLTAADTASYFCARGYSYGDTGYADAILTLDLWGPGTLVTVSS
VL: ELDLTQTPASVEAAVGGTVTIKCQASQTIGSYLSWYQQKPGQRPKLLIYEASKLASGVPSWFKGSGSGTEFTLTISDLECADAATYYCQSNYYRAGGNYGGAFGGGTEVEIK
notes: recombinant rabbit IgG
B12: B1-#27 (antibody, V domains shown)
VH: EQSVKESGGGLVQPEGSLTLTCTVSGFSFSGSYWICWVRQAPGKGLEWIACIYGDSIATYYPNWAKGRFTISKTSSTTVTLQMASLTGADTATYFCARDRNGGSGAYGWDLWGPGTLVTISS
VL: ELDLTQTPASVSEPVGGTVTITCQASQSISSYLSWYQQTPGQPPKLLIYKASTLASGVPSRFKGSGSGTEFTLTISDLECADAATYYCQSYYYISATVDNTFGGGTEVEIK
notes: recombinant rabbit IgG
B13: B1-#209 (antibody, V domains shown)
VH: SQSVEESGGDLVKPGGTLTLTCTASRIDLNNYYYISWVRQAPGKGLEWIGVVATDSSVTWYASWAKGQFTISKTSSTTVTLQMTSLTAADTATYFCARGSGAATNGVWWVMGDGMDLWGPGTLVTVSS
VL: ELVMTQTPASVSEPVGGTVTIKCQASQSISSYLSWYQQKPGQPPKRLIYKASTLASGVPSRFKGSGSGTEFTLTISGVQCADAATYYCQNNYHSGSSNGGGFAFGGGTEVEIK
notes: recombinant rabbit IgG
B14: B1-#178-2 (antibody, V domains shown)
VH: QKQLVESGGGLVQPEGSLALTCTASGFSFSSSYWICWVRQAPGKGLEWIACIYAGSSGSTYYASWVNGRFTVFKTSSTTVTLQMTSLTAADTATYFCARGGTSYRLDLWGPGTLVTVSS
VL: ELVLTQTPSSKSVAVGDTVTINCQASDNVYSNNYTSWFQQKPGQPPKQLLYYAAYRASGVPSRFKGSGSGTEFTLSISDVVCDDAATYYCSGHKDYSDDGSTFGGGTEVEIK
notes: recombinant rabbit IgG
B15: B1-176-N297A (antibody, V domains shown)
VH: B4 VH with V3L, K4E, G7E
VL: B4 VL with M4L, N110K
B16: Hu B1-176-N297A (antibody, V domains shown)
VH: B1 VH with W48L
VL: B1 VL
notes: Human IgG1 with N297A

Residue numbers refer to the chain shown, from its start. In names and notes the source's numbering stands.

In general, EC50 (read off the curve) refers to the concentration at which the effect is half-maximal. What is called EC50 is the concentration that produces a half-maximal response. What is called Kd is the constant that tells how readily two partners part at equilibrium. What is called koff is the rate constant with which the complex falls apart. As a reminder, the kon is the rate constant with which the complex forms.

T2 sequence (O75019 17-461 limits assumed): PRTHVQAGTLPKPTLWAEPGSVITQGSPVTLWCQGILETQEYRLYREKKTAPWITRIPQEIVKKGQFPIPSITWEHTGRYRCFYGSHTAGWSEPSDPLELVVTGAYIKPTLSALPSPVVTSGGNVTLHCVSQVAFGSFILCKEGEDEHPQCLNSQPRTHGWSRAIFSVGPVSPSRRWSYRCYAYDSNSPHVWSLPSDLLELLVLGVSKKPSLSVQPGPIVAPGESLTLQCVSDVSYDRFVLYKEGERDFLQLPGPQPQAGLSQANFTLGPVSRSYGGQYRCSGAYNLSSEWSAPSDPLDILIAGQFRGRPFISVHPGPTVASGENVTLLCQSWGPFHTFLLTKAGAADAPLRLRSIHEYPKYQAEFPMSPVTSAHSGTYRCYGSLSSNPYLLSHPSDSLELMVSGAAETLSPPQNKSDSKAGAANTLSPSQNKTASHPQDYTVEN
T1 sequence (Q8NHL6 24-461 limits assumed): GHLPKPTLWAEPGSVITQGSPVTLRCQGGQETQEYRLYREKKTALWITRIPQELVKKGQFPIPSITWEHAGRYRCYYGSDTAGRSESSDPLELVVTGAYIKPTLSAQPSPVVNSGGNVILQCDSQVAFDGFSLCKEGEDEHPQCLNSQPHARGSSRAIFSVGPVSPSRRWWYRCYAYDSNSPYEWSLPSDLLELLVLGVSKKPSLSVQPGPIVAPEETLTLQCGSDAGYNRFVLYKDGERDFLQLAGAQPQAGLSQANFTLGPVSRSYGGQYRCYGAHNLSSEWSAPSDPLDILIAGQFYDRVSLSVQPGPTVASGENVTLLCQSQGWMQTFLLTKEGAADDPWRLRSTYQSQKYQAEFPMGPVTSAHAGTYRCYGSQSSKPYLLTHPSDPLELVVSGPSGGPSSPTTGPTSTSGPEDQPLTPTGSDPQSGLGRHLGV

One assay concerns the target T1, recombinant human LILRB1 protein (human, UniProt Q8NHL6 24-461).
T1 construct: ELISA and Octet methods say only 'recombinant LILRB1'; also called recombinant LILRB1; LILRB1 recombinant proteins
The assay is described as follows: ELISA.
Description: (§1) ELISA. LILRB1 recombinant proteins (50 ng/well, 100 μL per well) were coated on Corning 96-well ELISA plates at 37° C. for 4 hrs. Plates were blocked for 2 hrs at 37° C. with 5% non-fat milk. After washing with PBST, 100 μL of serial diluted anti-LILRB1 antibodies were added and incubated for 60 min at 37° C. […] Plates were washed again with PBST for another 5 times, then the immunoreactions were developed with TMB substrates (Sigma, Cat #T0440) and stopped by the addition of 2 M H_2SO_4 before the plate was read at 450 nm.
Turning to B1, the binding result is on record as “binds”.

Another assay concerns the target T1, recombinant human LILRB1 protein. The assay is described as follows: ELISA. This is another data set of the same source. In general terms: In an ELISA, binding on a coated surface is turned into a signal by an enzyme label.
Description: as §1
Take B2: the “EC50 (read off the curve)” value is approximately 0.04 µg/mL.

Another assay addresses T2, LILRA1 (human, UniProt O75019).
T2 construct: not the cell-surface form of MOLECULES; also called LILRA1 protein of the ELISA and Octet specificity tests
Description: Octet RED96, cross-reactivity table. For orientation: In BLI a coated tip is dipped into the sample, and binding shifts an interference pattern.
Take B3: the binding result was “binds”.

For B4, the binding result was “no binding (tested: not given)”.

For B5, the binding result is “binds”.

B6: the binding result is “binds”.

The target in another assay is T3, recombinant LILRB1 (human, UniProt Q8NHL6 24-461).
T3 construct: LILRB1-Fc proteins were also made; also called LILRB1 recombinant proteins
T3 sequence (Q8NHL6 24-461 limits assumed): as above
Description: ELISA, coated recombinant LILRB1, antibody titration.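 Note: serially diluted anti-LILRB1 antibodies incubated 60 min at 37 °C on plates coated with 50 ng/well recombinant protein, TMB colorimetric development read as absorbance at 450 nm.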
Description: as §1
On to B7, for which the EC50 is 0.13 µg/mL.

In the case of B8, the EC50 turned out to be 0.00942 µg/mL.

As for B3, the EC50 stood at 0.00678 µg/mL.

With B4, the EC50 worked out at 0.00737 µg/mL.

Regarding B9, the EC50 stood at 0.482 µg/mL.

In the case of B10, the EC50 was found to be 0.011 µg/mL.

Regarding B11, the EC50 is 0.0292 µg/mL.

For B12, the EC50 amounted to 0.00794 µg/mL.

As for B5, the EC50 was found to be 0.00602 µg/mL.

As for B13, the EC50 stood at 0.011 µg/mL.

For the molecule B14, the EC50 was 0.0143 µg/mL.

The next assay addresses T1, recombinant human LILRB1 protein. The assay is described as follows: Octet RED96, LILRB1 at 100, 33.3, 11.1 and 3.7 nM.
Description: (§2) Following a short baseline in kinetics buffer for 20 s, the loaded biosensors were exposed to solutions of recombinant LILRB1 in a range of concentrations (0-500 nM). After background was subtracted, data was fit to a 1:1 binding model to extract an association rate ($kon$) and dissociation rate ($koff$). The KD was calculated using the ratio $koff/kon$. […] All experiments were performed with shaking at 1,000 rpm. All raw data was processed using ForteBio Octet Data Analysis Software 9.0.
On to B15, for which the Kd came to 0.17 nM.

Take B16: the Kd is 0.351 nM.

For a further assay, the target named is T3, recombinant LILRB1. Description: BLI (Octet RED96), antibody on biosensor, recombinant LILRB1 in solution.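 Note: Background-subtracted sensorgrams fitted with a one-to-one binding model, KD taken as koff over kon.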
Description: as §2
Regarding B7, the Kd is 16.1 nM, the koff was determined as 0.00145 s⁻¹ and the on-rate (kon) was found to be 89900 M⁻¹ s⁻¹.

As to B8, the Kd is 0.0272 nM, the koff was 5.92e-06 s⁻¹ and the kon amounted to 218000 M⁻¹ s⁻¹.

Take B9: the dissociation constant Kd turned out to be 8.54 nM, the koff worked out at 0.000338 s⁻¹ and the kon was determined as 39600 M⁻¹ s⁻¹.

For the molecule B10, the Kd is 3.14 nM, the koff is 0.000237 s⁻¹ and the kon stood at 75700 M⁻¹ s⁻¹.

Consider B11, for which the Kd was determined as 0.611 nM, the koff came out at 8.62e-05 s⁻¹ and the on-rate (kon) worked out at 141000 M⁻¹ s⁻¹.

With B12, the Kd was 1.27 nM, the koff stood at 0.000161 s⁻¹ and the kon amounted to 127000 M⁻¹ s⁻¹.

In the case of B13, the dissociation constant (Kd) turned out to be 3.03 nM, the koff was found to be 0.000209 s⁻¹ and the kon worked out at 68900 M⁻¹ s⁻¹.

Regarding B14, the dissociation constant (Kd) worked out at 1.59 nM, the koff is 0.000273 s⁻¹ and the kon turned out to be 172000 M⁻¹ s⁻¹.

Values taken from patent publication US12723078 (University of Texas, dated 2026).
